Experiments:
[1] = target: Collagen type I (UniProt P02452); experiment: SPR; collagen I immobilised by amine coupling on a CM3 chip (about 1500 RU); Slr or M1 diluted 2-fold from 500 nM, 35 µl/min, in 10 mM HEPES, 150 mM NaCl, 0.005% Surfactant P20, pH 7.5; BIAcore 2000; 1:1 Langmuir fit
[2] = target: T1, Collagen type I (UniProt P02452 162-1218; P08123 80-1119); experiment: as above; conditions: both partners purified
T1 construct: collagen I alpha1 chain (printed as the α1 chain, 134 kDa); collagen I alpha2 chain (printed as the α2 chain, 130 kDa); Used non-denatured, denatured with 4 M guanidine hydrochloride, monomeric and fibrillar; also called collagen I; monomeric collagen I; source: bought: Sigma
T1 sequence (P02452 162-1218, chain 1 of 2): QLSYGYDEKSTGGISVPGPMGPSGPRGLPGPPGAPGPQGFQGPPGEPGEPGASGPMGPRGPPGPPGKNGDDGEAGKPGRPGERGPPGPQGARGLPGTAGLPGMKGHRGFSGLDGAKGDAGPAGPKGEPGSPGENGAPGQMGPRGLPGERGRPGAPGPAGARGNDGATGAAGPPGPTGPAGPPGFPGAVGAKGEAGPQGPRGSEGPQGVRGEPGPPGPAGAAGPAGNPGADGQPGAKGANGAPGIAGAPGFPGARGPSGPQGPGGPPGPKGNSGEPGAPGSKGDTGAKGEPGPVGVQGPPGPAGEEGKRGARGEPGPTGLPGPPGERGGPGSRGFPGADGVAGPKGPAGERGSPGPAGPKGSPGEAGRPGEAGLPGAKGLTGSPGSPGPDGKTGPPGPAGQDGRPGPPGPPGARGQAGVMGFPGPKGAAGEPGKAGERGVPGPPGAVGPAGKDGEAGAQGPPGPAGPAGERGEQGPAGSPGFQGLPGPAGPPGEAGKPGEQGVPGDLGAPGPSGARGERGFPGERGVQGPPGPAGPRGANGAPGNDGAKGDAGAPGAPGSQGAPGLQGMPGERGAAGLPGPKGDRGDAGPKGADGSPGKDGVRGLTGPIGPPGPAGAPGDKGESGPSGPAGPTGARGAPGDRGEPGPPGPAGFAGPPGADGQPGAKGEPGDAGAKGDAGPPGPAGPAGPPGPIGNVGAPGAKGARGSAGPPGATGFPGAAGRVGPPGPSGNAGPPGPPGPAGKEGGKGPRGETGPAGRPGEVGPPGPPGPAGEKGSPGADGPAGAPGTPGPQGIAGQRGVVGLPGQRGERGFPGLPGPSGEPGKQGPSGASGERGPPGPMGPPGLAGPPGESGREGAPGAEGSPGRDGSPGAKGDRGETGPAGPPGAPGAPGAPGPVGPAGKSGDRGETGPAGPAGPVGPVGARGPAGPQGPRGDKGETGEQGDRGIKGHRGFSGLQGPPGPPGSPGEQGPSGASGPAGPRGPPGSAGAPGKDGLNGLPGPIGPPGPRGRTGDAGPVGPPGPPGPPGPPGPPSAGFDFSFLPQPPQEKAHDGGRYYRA
T1 sequence (P08123 80-1119, chain 2 of 2): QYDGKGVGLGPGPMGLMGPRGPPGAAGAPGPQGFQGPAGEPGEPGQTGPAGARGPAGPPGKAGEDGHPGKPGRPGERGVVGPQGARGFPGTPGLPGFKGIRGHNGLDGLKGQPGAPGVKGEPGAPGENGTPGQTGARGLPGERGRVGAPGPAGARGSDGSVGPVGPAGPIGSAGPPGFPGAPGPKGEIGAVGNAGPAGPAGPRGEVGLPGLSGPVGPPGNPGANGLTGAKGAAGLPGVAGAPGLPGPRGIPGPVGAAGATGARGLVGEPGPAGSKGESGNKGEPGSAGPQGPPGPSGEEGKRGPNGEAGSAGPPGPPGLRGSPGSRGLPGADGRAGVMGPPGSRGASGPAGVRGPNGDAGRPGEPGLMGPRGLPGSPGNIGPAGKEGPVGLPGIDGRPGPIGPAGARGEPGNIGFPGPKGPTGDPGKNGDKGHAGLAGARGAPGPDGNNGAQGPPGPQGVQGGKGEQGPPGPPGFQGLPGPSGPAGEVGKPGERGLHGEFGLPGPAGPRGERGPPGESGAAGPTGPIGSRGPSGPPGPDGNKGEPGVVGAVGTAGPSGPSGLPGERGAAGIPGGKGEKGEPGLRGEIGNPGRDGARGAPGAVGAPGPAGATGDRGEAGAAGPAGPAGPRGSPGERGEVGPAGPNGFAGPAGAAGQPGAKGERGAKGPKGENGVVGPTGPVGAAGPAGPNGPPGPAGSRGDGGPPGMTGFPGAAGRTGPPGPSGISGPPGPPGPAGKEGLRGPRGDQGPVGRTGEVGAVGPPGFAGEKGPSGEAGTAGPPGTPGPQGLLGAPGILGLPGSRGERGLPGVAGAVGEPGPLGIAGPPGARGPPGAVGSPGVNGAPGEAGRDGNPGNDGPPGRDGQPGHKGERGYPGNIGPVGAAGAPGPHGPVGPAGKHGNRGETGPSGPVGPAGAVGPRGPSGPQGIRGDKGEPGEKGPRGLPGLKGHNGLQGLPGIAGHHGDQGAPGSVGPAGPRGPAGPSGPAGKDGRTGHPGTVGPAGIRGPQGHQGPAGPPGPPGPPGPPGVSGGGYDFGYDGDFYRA

Collagen type I (UniProt P02452), sequence (P02452 162-1218, chain 1 of 2): as the sequence (P02452 162-1218, chain 1 of 2) above
Collagen type I (UniProt P02452), sequence (P08123 80-1119, chain 2 of 2, further chain): as the sequence (P08123 80-1119, chain 2 of 2) above

streptococcal leucine rich (Slr) protein, recombinant, GST tag removed (from UniProt F8THZ1 1-792) (natural protein)
Kd [1]: 12 nM

B1: M1 protein from Streptococcus pyogenes, purified from culture supernatants of strain MC25 (natural protein)
chain: NGDGNPREVIEDLAANNPAIQNIRLRYENKDLKARLENAMEVAGRDFKRAEELEKAKQALEDQRKDLETKLKELQQDYDLAKESTSWDRQRLEKELEEKKEALELAIDQASRDYHRATALEKELEEKKKALELAIDQASQDYNRANVLEKELETITREQEINRNLLGNAKLELDQLSSEKEQLTIEKAKLEEEKQISDASRQSLRRDLDASREAKKQVEKDLANLTAELDKVKEDKQISDASRQGLRRDLDASREAKKQVEKDLANLTAELDKVKEEKQISDASRQGLRRDLDASREAKKQVEKALEEANSKLAALEKLNKELEESKKLTEKEKAELQAKLEAEAKALKEQLAKQAEELAKLRAGKASDSQTPDTKPGNKAVPGKGQAPQAGTKPNQNKAPMKETKRQLPST
Kd [2]: 54 nM

From PMC3105044, “The Membrane Bound LRR Lipoprotein Slr, and the Cell Wall-Anchored M1 Protein from Streptococcus pyogenes Both Interact with Type I Collagen” (PLoS ONE, 2011)
